Test results reported in patent US20260055193A1 (CELLDEX THERAPEUTICS, published 2026).

T1: recombinant human FcγRIIb (human, UniProt P31994 46-217, limits assumed)
T1 construct: Histidine-tagged recombinant receptor captured on anti-Penta-His biosensors; not shown: histidine tag
T1 sequence (looked up): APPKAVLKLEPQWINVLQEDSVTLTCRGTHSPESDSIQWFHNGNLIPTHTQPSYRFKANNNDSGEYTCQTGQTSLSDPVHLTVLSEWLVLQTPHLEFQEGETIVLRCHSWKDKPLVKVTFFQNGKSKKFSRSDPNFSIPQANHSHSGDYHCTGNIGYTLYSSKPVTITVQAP


Experiments:
[1] = target: human KIT (wild-type KIT) (human, UniProt P10721 26-976); test: cell-based or functional assay
Sequence of human KIT (wild-type KIT) (P10721 other isoform, or with tags, fused parts or gaps limits assumed): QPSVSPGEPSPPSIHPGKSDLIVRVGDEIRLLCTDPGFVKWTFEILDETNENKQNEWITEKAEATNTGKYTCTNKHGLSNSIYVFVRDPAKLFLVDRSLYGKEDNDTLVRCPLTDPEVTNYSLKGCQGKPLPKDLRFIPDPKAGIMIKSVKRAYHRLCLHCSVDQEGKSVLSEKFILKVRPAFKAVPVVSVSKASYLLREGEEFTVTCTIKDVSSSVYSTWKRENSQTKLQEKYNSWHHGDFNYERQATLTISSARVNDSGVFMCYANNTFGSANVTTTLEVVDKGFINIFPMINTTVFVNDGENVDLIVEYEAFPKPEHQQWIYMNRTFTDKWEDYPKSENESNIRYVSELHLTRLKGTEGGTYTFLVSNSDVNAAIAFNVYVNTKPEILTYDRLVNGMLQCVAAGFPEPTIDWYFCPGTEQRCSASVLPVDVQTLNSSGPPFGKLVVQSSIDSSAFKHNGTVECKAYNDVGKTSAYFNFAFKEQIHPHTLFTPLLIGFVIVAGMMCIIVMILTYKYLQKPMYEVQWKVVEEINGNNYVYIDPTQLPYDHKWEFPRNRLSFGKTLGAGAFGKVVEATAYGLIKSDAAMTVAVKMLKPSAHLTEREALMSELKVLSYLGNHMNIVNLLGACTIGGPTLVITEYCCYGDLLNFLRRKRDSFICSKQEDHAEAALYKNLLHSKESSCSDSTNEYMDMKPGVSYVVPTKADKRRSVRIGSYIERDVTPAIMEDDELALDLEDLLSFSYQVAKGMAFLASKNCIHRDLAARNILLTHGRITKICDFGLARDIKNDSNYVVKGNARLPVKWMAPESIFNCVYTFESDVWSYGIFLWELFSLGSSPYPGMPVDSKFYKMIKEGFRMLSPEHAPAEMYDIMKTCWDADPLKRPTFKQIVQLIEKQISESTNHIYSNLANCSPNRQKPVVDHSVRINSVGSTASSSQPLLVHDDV

[2] = target: T1, recombinant human FcγRIIb; test: Bio-layer interferometry (Octet QKe); His-tagged FcγRIIb on anti-Penta-His biosensors, serial dilutions of antibody
Description: Binding to recombinant human Fc receptors was measured by bio-layer interferometry using an Octet® QKe instrument. […] Curve fitting was performed using the instrument's analysis software. Binding to FcRn was performed with association and dissociation steps at pH 6.0 as well as pH 7.2.

| IC50 of inhibition of SCF-dependent M-07e cell proliferation [1] | binding result [2] | Binder |
| --- | --- | --- |
| 1.11 nM |  | mAb1 (antibody, human IgG1, kappa) heavy: QVQLVQSGAEVKKPGASVKLSCKASGYTFTDYYINWVRQAPGKGLEWIARIYPGSGNTYYNEKFKGRATLTADKSTSTAYMQLSSLRSEDTAVYFCARGVYYFDYWGQGTTVTVSSASTKGPSVFPLAPSSKSTSGGTAALGCLVKDYFPEPVTVSWNSGALTSGVHTFPAVLQSSGLYSLSSVVTVPSSSLGTQTYICNVNHKPSNTKVDKKVEPKSCDKTHTCPPCPAPEAQGGPSVFLFPPKPKDTLYITREPEVTCVVVDVSHEDPEVKFNWYVDGVEVHNAKTKPREEQYNSTYRVVSVLTVLHQDWLNGKEYKCQVSNKALPAPIEKTISKAKGQPREPQVYTLPPSRDELTKNQVSLTCLVKGFYPSDIAVEWESNGQPENNYKTTPPVLDSDGSFFLYSKLTVDKSRWQQGNVFSCSVMHEALHNHYTQKSLSLSPG light: DIVMTQSPSSLSASVGDRVTITCKASQNVRTNVAWYQQKPGKAPKALIYSASYRYSGVPDRFTGSGSGTDFTLTISSLQPEDFADYFCQQYNSYPRTFGGGTKVEIKRTVAAPSVFIFPPSDEQLKSGTASVVCLLNNFYPREAKVQWKVDNALQSGNSQESVTEQDSKDSTYSLSSTLTLSKADYEKHKVYACEVTHQGLSSPVTKSFNRGEC |
| 1.12 nM | no binding (tested: 500 nM) | mAbc (antibody, It only says that mAbc has the variable regions of mAb1 and a wild-type (unmutated) human IgG1 Fc; also called corresponding antibody with a wild-type (unmutated) IgG1 Fc domain; copies: 2 + 2) heavy: not shown light: DIVMTQSPSSLSASVGDRVTITCKASQNVRTNVAWYQQKPGKAPKALIYSASYRYSGVPDRFTGSGSGTDFTLTISSLQPEDFADYFCQQYNSYPRTFGGGTKVEIKRTVAAPSVFIFPPSDEQLKSGTASVVCLLNNFYPREAKVQWKVDNALQSGNSQESVTEQDSKDSTYSLSSTLTLSKADYEKHKVYACEVTHQGLSSPVTKSFNRGEC |
